System: T1, Nc1ncnc2c1ncn2[C@@H]1O[C@H](COP(=O)(O)OP(=O)(O)OP(=O)(O)O)[C@@H](O)[C@H]1O
T1 construct: Purified Pgp extracted from Chinese Hamster Ovary B30 cells, reconstituted in giant liposomes
Assay: Km of ATP from Rho123 transport rates in giant proteoliposomes; colorimetric ATPase assay
Type: biochemical, Cricetulus griseus

P-glycoprotein (Pgp, ABCB1) (Cricetulus griseus), sequence (chain, as listed by the source): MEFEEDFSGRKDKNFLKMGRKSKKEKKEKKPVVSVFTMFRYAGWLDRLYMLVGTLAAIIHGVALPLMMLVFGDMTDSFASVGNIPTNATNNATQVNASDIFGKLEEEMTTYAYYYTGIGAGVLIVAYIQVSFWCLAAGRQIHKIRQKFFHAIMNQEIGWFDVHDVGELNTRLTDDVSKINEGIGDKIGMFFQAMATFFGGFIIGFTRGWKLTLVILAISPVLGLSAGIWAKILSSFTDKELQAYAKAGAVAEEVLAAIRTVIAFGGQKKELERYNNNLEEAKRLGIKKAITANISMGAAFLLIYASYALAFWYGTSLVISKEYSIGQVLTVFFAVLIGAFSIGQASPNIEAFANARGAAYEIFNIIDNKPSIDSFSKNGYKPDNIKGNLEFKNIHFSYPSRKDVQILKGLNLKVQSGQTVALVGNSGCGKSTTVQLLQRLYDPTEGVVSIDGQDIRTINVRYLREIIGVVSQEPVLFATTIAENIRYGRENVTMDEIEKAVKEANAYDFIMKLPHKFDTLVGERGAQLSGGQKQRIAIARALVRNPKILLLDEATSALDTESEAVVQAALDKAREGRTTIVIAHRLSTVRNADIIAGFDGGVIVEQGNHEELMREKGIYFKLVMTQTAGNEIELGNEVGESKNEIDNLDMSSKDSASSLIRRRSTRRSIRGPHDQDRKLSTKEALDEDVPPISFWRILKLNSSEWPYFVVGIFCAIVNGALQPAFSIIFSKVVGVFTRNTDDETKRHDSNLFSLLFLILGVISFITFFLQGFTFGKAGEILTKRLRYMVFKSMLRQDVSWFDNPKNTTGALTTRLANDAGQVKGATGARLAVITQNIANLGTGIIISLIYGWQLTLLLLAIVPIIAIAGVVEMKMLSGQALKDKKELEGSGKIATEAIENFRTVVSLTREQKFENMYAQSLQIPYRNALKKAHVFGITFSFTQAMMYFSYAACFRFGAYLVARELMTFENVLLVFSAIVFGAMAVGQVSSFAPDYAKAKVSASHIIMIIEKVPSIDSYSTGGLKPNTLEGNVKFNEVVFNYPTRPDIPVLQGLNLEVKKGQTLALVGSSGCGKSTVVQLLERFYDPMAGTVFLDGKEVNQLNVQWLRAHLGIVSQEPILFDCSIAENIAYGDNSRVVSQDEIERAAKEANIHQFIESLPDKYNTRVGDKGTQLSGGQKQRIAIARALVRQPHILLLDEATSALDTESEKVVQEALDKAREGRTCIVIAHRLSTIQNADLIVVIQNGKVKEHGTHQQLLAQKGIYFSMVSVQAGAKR

P-glycoprotein (Pgp, ABCB1) (Cricetulus griseus)
Km: 420 ± 750 µM

Source: PMC6005519, “Reconstitution and functional studies of hamster P-glycoprotein in giant liposomes” (PLoS ONE, 2018)
